Data from the Immune Epitope Database (IEDB).

Experiments:
Assay in all cases: IEDB peptide-MHC binding, purified MHC/competitive/radioactivity; filed as Kd, often an IC50 or EC50 that approximates it; ≥ and ≤ were set here for values at or beyond the usual limits of such assays
HLA-A*26:01 = target: HLA-A*26:01
HLA-A*30:02 = target: HLA-A*30:02
HLA-A*24:02 = target: HLA-A*24:02
HLA-A*01:01 = target: HLA-A*01:01
HLA-A*29:02 = target: HLA-A*29:02
HLA-A*23:01 = target: HLA-A*23:01
HLA-B*40:01 = target: HLA-B*40:01
HLA-B*53:01 = details: source organism: Dengue virus 1 Brazil/97-11/1997
HLA-B*44:02 = details: source organism: Dengue virus 1 Brazil/97-11/1997
HLA-B*44:03 = details: source organism: Dengue virus 1 Brazil/97-11/1997
[1] = source organism: SARS coronavirus Tor2
[2] = source organism: Mammarenavirus whitewaterense
[3] = source organism: Mammarenavirus choriomeningitidis

| Sequence | Kd (HLA-A*26:01; [1]) [nM] | Kd (HLA-A*30:02; [1]) [nM] | Kd (HLA-A*24:02; [1]) [nM] | Kd (HLA-A*01:01; [1]) [nM] | Kd (HLA-A*29:02; [1]) [nM] | Kd (HLA-A*23:01; [1]) [nM] | further results |
| --- | --- | --- | --- | --- | --- | --- | --- |
| FDEISMATNY | 699 | 4100 | ≥ 70300 | 13000 | 18.4 | ≥ 70000 |  |
| VFQSATKII | ≥ 43600 | 199 | 0.211 | ≥ 59200 | 0.0425 | 0.162 |  |
| YQPESQKFI |  |  |  |  |  |  | Kd (HLA-A*24:02; [2]): 8480 nM; Kd (HLA-A*29:02; [2]): 3390 nM; Kd (HLA-A*23:01; [2]): 7210 nM |
| KEGDQYIYM |  |  |  |  |  |  | Kd (HLA-B*40:01; source organism: Dengue virus 1 Nauru/West Pac/1974): 45.1 nM |
| IEKASFIEV |  |  |  |  |  |  | Kd (HLA-B*40:01; source organism: Dengue virus 2 Peru/IQT2913/1996): 4040 nM |
| RYNTRGNTY | ≥ 52200 | 31.3 | 1790 | 13900 | 1770 | 8930 |  |
| AYTSSDDEI |  |  |  |  |  |  | Kd (HLA-A*24:02; [2]): 4870 nM; Kd (HLA-A*29:02; [2]): 1590 nM; Kd (HLA-A*23:01; [2]): 1580 nM |
| FPQSNAVIQ |  |  |  |  |  |  | Kd (HLA-B*53:01): 527 nM |
| LTNDNTSRY | 6.48 | 8.9 | ≥ 77600 | 1.59 | 31.6 | ≥ 77800 |  |
| DNAFNCTFEY | 132 | 382 | ≥ 70300 | 4250 | 14.4 | ≥ 70000 |  |
| KSFEIDKGIY | 5510 | 4.75 | ≥ 70300 | 780 | 984 | ≥ 70000 |  |
| VKMPTHRHI |  |  |  |  |  |  | Kd (HLA-A*26:01; [3]): ≥ 77900 nM; Kd (HLA-A*30:02; [3]): ≥ 76900 nM; Kd (HLA-A*24:02; [3]): ≥ 77500 nM; Kd (HLA-A*01:01; [3]): ≥ 78100 nM; Kd (HLA-A*29:02; [3]): ≥ 78900 nM; Kd (HLA-A*23:01; [3]): ≥ 77700 nM |
| DEDNPYKTW |  |  |  |  |  |  | Kd (HLA-B*44:02): 519 nM; Kd (HLA-B*44:03): 640 nM |
| EEALKGLPI |  |  |  |  |  |  | Kd (HLA-B*40:01; source organism: Dengue virus 3 Martinique/1243/1999): 3380 nM |
